# According to patent US9322042B2, “Thermostable cellulases, and mutants thereof, capable of hydrolyzing cellulose in ionic liquid” (The Regents of the University of California, priority 2009, dated 2016):
# B1: Pho EG: cellulase of Pyrococcus horikoshii strain OT3 (Accession No. NP_143072); SEQ ID NO: 21 (protein, listed as Pyrococcus horikoshii)
# chain: MEGNTILKIVLICTILAGLFGQVVPVYAENTTYQTPTGIYYEVRGDTIYMINVTSGEETPIHLFGVNWFGFETPNHVVHGLWKRNWEDMLLQIKSLGFNAIRLPFCTESVKPGTQPIGIDYSKNPDLRGLDSLQIMEKIIKKAGDLGIFVLLDYHRIGCTHIEPLWYTEDFSEEDFINTWIEVAKRFGKYWNVIGADLKNEPHSVTSPPAAYTDGTGATWGMGNPATDWNLAAERIGKAILKVAPHWLIFVEGTQFTNPKTDSSYKWGYNAWWGGNLMAVKDYPVNLPRNKLVYSPHVYGPDVYNQPYFGPAKGFPDNLPDIWYHHFGYVKLELGYSVVIGEFGGKYGHGGDPRDVIWQNKLVDWMIENKFCDFFYWSWNPDSGDTGGILQDDWTTIWEDKYNNLKRLMDSCSKSSSSTQSVIRSTTPTKSNTSKKICGPAILIILAVFSLLLRRAPR
# B2: Tma Cel5A: wild-type cellulase of Thermatoga maritima strain MSB8 (Accession No. NP_229549); SEQ ID NO: 20 (protein, listed as Thermotoga maritima)
# chain: MGVDPFERNKILGRGINIGNALEAPNEGDWGVVIKDEFFDIIKEAGFSHVRIPIRWSTHAYAFPPYKIMDRFFKRVDEVINGALKRGLAVVINIHHYEELMNDPEEHKERFLALWKQIADRYKDYPETLFFEILNEPHGNLTPEKWNELLEEALKVIRSIDKKHTIIIGTAEWGGISALEKLSVPKWEKNSIVTIHYYNPFEFTHQGAEWVEGSEKWLGRKWGSPDDQKHLIEEFNFIEEWSKKNKRPIYIGEFGAYRKADLESRIKWTSFVVREMEKRRWSWAYWEFCSGFGVYDTLRKTWNKDLLEALIGGDSIE
# How the values were obtained:
# [1] = Activity assay on insoluble substrate: [C2mim][OAc] pretreated corn stover; type: biochemical; settings: pCorn stover
# From the text: (§1) Corn stover refers to stalks, leaves and cobs that remain in the fields after the corn kernel harvest and is the largest quantity of biomass residue in the United States and as such is also a LC-biomass source for producing cellulosic ethanol in the United States. [C2mim][OAc] pretreated corn stover is used as a substrate to verify enzymatic efficiency on IL-pretreated biomass and a comparison made with [C2mim][OAc] pretreated Avicel. Avicel is a commercially available microcrystalline cellulose and a good model substrate for analysis. Similar assays are done in the presence of [C2mim][OAc] to simulate real biomass processing and saccharification scenarios. The assay products for the reactions in the presence of IL are detected by high performance anion exchange chromatography (HPAEC). The enzymatic hydrolysis reaction is carried out for 8 h for the T. viride cellulase and 15 h for the hyperthermophilic enzymes, taking into account the half-lives of these enzymes. To compare the amounts of total sugars formed between different reactions, the sum of glucose, xylose and cellobiose are calculated and reported as mmoles of sugars formed per min per mg of enzyme used (Table 7). A comparison of assay results between pretreated and untreated substrate indicates a 2-6 fold increase in hydrolysis products after pretreatment irrespective of the enzyme used, thereby confirming that IL pretreatment can increase the efficiency of hydrolysis of cellulose recovered from biomass. […] The catalytic efficiency of the fungal enzyme however, decreases with increasing IL concentration in the reaction mix. After normalizing for the reaction time and enzyme amounts, the amount of sugars formed is undetectable at 15% [C2mim][OAc]. […] The yield of sugars from Tma Cel5A hydrolysis of pretreated Avicel in the presence of 15% IL decreases by 43% compared to 0% IL, while the decrease is only 10% in the case of Pho EG on the same substrate under similar conditions (Table 7).
# (§2) The hydrolysis reactions are performed under pH and temperatures for each enzyme as described herein. The reactions are run over a 14 h period with 5-10 mg of enzyme with 6% (w/v) enzyme loading in optimum buffer for each enzyme and run in duplicate. The reaction products are measured on a HPLC and HPAEC. The amounts of sugars detected are shown in mmoles and normalized with regards to amount of enzyme and time of reaction. Different reactions under each enzyme were run under exactly similar conditions.
# (§3) [C2mim][OAc] (1 kg, as received, <0.2% moisture specified) is heated to 130° C. in a 1.5 L glass reaction vessel with mechanical stirring and 8% w/w (corn stover, 4.8% moisture) or 10% w/w (Avicel PH-101, 3% moisture). After around 3 h when the majority (corn stover) or all (Avicel) has dissolved, the dissolved corn stover or Avicel is allowed to cool to below 80° C. and is added to 2 L of 95% ethanol with rapid agitation to induce the precipitation of dissolved materials. The resulting slurry is filtered under pressure through polypropylene filter cloth and the solids redispersed in 2 L of additional ethanol. The filtration and redispersion steps are repeated twice to remove most residual ionic liquid and the filter cake dried under vacuum at 40° C. to yield a free-flowing powder product. Residual free ionic liquid remaining in the dried biomass is estimated to be less than 4% (w/w).
# (§4) Enzymatic activity is measured on soluble polysaccharide substrates, CMC, using the 3,5-dinitrosalicylic acid (DNS) reducing sugar assay. Briefly, 2% CMC (w/v) in […] acetate buffer, (100 mM, pH 4.5 and pH 4.8 for T. viride and Tma, respectively, and 100 mM MES buffer, pH 6.4 for P. hori EG) is incubated at 80° C. for 30 min for Tma Cel5A and Pho enzymes and 37° C. and 10 min for T. viride. The solution is cooled down to 4° C. and […] of DNS solution is added. The reactants are incubated at 95° C. for 5 min and cooled down to room temperature before the absorbance is read at 540 nm. […]
# [2] = Activity assay on insoluble substrate: [C2mim][OAc] pretreated Avicel; type: biochemical; settings: for decrease of the yield of sugars from hydrolysis of pretreated Avicel: 15% IL compared to 0% IL; for Sugars produced (sum of glucose, cellobiose and xylose): pAvicel
# From the text: as §1, §2, §3, §4
# [3] = Melting temperature (Tm) of the enzyme at varying EMIM Acetate concentration; type: physicochemical
Molecule,"Sugars produced (sum of glucose, cellobiose and xylose) ([1]; 0% [C2mim][OAc]) [µmol/min/mg]","Sugars produced (sum of glucose, cellobiose and xylose) ([1]; 5% [C2mim][OAc]) [µmol/min/mg]","Sugars produced (sum of glucose, cellobiose and xylose) ([1]; 10% [C2mim][OAc]) [µmol/min/mg]","Sugars produced (sum of glucose, cellobiose and xylose) ([1]; 15% [C2mim][OAc])",decrease of the yield of sugars from hydrolysis of pretreated Avicel [2] [%],"Sugars produced (sum of glucose, cellobiose and xylose) ([2]; 0% [C2mim][OAc]) [µmol/min/mg]","Sugars produced (sum of glucose, cellobiose and xylose) ([2]; 5% [C2mim][OAc]) [µmol/min/mg]","Sugars produced (sum of glucose, cellobiose and xylose) ([2]; 10% [C2mim][OAc])","Sugars produced (sum of glucose, cellobiose and xylose) ([2]; 15% [C2mim][OAc]) [µmol/min/mg]","Melting Temp. ([3]; 0% EMIM Acetate, listed as T. maritima) [°C]","Melting Temp. ([3]; 0% EMIM Acetate, listed as T. maritima endoglucanase) [°C]",Melting Temp. ([3]; 5% EMIM Acetate) [°C],Melting Temp. Decrease ([3]; 5% EMIM Acetate vs 0%) [°C],Melting Temp. ([3]; 10% EMIM Acetate) [°C],Melting Temp. Decrease ([3]; 10% EMIM Acetate vs 0%) [°C],Melting Temp. ([3]; 15% EMIM Acetate) [°C],Melting Temp. Decrease ([3]; 15% EMIM Acetate vs 0%) [°C],Melting Temp. ([3]; 20% EMIM Acetate) [°C],Melting Temp. Decrease ([3]; 20% EMIM Acetate vs 0%) [°C]
B1,2.14 ± 0.1,2.2 ± 0.14,2.0 ± 0.2,1.9 ± 0.1 µmol/min/mg,10,3.2 ± 0.2,3.3 ± 0.2,3.1 ± 0.2 µmol/min/mg,2.9 ± 0.06,,,,,,,,,,
B2,9 ± 1,8 ± 0.9,7 ± 1,5.9 ± 1^ μmoles min^−1 mg^−1,43,6.6 ± 0.8,6 ± 0.5,5.7 ± 1^ μmoles min^−1 mg^−1,4 ± 0.5,108,109,101,8,98,11,93,16,89,20
